Source: patent publication US20250327097A1, “ORGANISMS PRODUCING LESS CROTONIC ACID” (Global Bioenergies, priority 2021, published 2025)

B1: I283L-N285P-N287T-Q290E-S322T-N388M-K394R-C430A-L432F-L434W-S436N-dG462 (protein)
chain: MFLKSLREQINLLKRQGDLRIINRPVDSYLEAAAIIRRSTETKAPVPLMTNIKGYPGCSIVGGLAALSSNPEYPLSRVAMSLGLSTTASAQSIVQYLIDGLKKTPYLPVEIDSNSAPCKQNILRGEDASLAHFPIPQVHQHDGNRYVNTWGVFIVESPDGQWCNWSIQRVQYLNDRQMIALVFPSQHISDIWEEWVKIGKPMPYALVQGCEPIVPYIAGLPLLERNVNEAEYIGALYGKGIEVVKCETHDLRVPASSEVVIEGYFAITREGVEGPFGEFAGYLPPETSLEPILSITAISWQDDPIWPVVAEGKPVDEYHTCTGIGDAAAIQNVLLTANLPVSFVWVPLYSACHLMIVSINRHWRQTHPDLTSEQLTKKVGDVIHQTRMSIKLPRIVVLDDDVDPADTESLLWALATRIHPERKRYFYESAIFPWLNCYSEEERHNRKGKRVIIDALLPENHGAISSFDYAYPDDIKQRVLMHWETDFSHD
B2: I283T-N285P-N287T-L289W-Q290E-S322T-N388M-K394R-C430A-L432F-L434W-S436N-dG462 (protein)
chain: MFLKSLREQINLLKRQGDLRIINRPVDSYLEAAAIIRRSTETKAPVPLMTNIKGYPGCSIVGGLAALSSNPEYPLSRVAMSLGLSTTASAQSIVQYLIDGLKKTPYLPVEIDSNSAPCKQNILRGEDASLAHFPIPQVHQHDGNRYVNTWGVFIVESPDGQWCNWSIQRVQYLNDRQMIALVFPSQHISDIWEEWVKIGKPMPYALVQGCEPIVPYIAGLPLLERNVNEAEYIGALYGKGIEVVKCETHDLRVPASSEVVIEGYFAITREGVEGPFGEFAGYTPPETSWEPILSITAISWQDDPIWPVVAEGKPVDEYHTCTGIGDAAAIQNVLLTANLPVSFVWVPLYSACHLMIVSINRHWRQTHPDLTSEQLTKKVGDVIHQTRMSIKLPRIVVLDDDVDPADTESLLWALATRIHPERKRYFYESAIFPWLNCYSEEERHNRKGKRVIIDALLPENHGAISSFDYAYPDDIKQRVLMHWETDFSHD
B3: I283T-N285P-N287T-L289R-Q290E-S322T-N388M-K394R-C430A-L432F-L434W-S436N-dG462 (protein)
chain: MFLKSLREQINLLKRQGDLRIINRPVDSYLEAAAIIRRSTETKAPVPLMTNIKGYPGCSIVGGLAALSSNPEYPLSRVAMSLGLSTTASAQSIVQYLIDGLKKTPYLPVEIDSNSAPCKQNILRGEDASLAHFPIPQVHQHDGNRYVNTWGVFIVESPDGQWCNWSIQRVQYLNDRQMIALVFPSQHISDIWEEWVKIGKPMPYALVQGCEPIVPYIAGLPLLERNVNEAEYIGALYGKGIEVVKCETHDLRVPASSEVVIEGYFAITREGVEGPFGEFAGYTPPETSREPILSITAISWQDDPIWPVVAEGKPVDEYHTCTGIGDAAAIQNVLLTANLPVSFVWVPLYSACHLMIVSINRHWRQTHPDLTSEQLTKKVGDVIHQTRMSIKLPRIVVLDDDVDPADTESLLWALATRIHPERKRYFYESAIFPWLNCYSEEERHNRKGKRVIIDALLPENHGAISSFDYAYPDDIKQRVLMHWETDFSHD
B4: I283T-N285P-N287T-L289C-Q290E-S322T-N388M-K394R-C430A-L432F-L434W-S436N-dG462 (protein)
chain: MFLKSLREQINLLKRQGDLRIINRPVDSYLEAAAIIRRSTETKAPVPLMTNIKGYPGCSIVGGLAALSSNPEYPLSRVAMSLGLSTTASAQSIVQYLIDGLKKTPYLPVEIDSNSAPCKQNILRGEDASLAHFPIPQVHQHDGNRYVNTWGVFIVESPDGQWCNWSIQRVQYLNDRQMIALVFPSQHISDIWEEWVKIGKPMPYALVQGCEPIVPYIAGLPLLERNVNEAEYIGALYGKGIEVVKCETHDLRVPASSEVVIEGYFAITREGVEGPFGEFAGYTPPETSCEPILSITAISWQDDPIWPVVAEGKPVDEYHTCTGIGDAAAIQNVLLTANLPVSFVWVPLYSACHLMIVSINRHWRQTHPDLTSEQLTKKVGDVIHQTRMSIKLPRIVVLDDDVDPADTESLLWALATRIHPERKRYFYESAIFPWLNCYSEEERHNRKGKRVIIDALLPENHGAISSFDYAYPDDIKQRVLMHWETDFSHD
B5: I283T-N285P-N287T-Q290E-S322T-Q365T-N388M-K394R-C430A-L432F-L434W-S436N-dG462 (protein)
chain: MFLKSLREQINLLKRQGDLRIINRPVDSYLEAAAIIRRSTETKAPVPLMTNIKGYPGCSIVGGLAALSSNPEYPLSRVAMSLGLSTTASAQSIVQYLIDGLKKTPYLPVEIDSNSAPCKQNILRGEDASLAHFPIPQVHQHDGNRYVNTWGVFIVESPDGQWCNWSIQRVQYLNDRQMIALVFPSQHISDIWEEWVKIGKPMPYALVQGCEPIVPYIAGLPLLERNVNEAEYIGALYGKGIEVVKCETHDLRVPASSEVVIEGYFAITREGVEGPFGEFAGYTPPETSLEPILSITAISWQDDPIWPVVAEGKPVDEYHTCTGIGDAAAIQNVLLTANLPVSFVWVPLYSACHLMIVSINRHWRTTHPDLTSEQLTKKVGDVIHQTRMSIKLPRIVVLDDDVDPADTESLLWALATRIHPERKRYFYESAIFPWLNCYSEEERHNRKGKRVIIDALLPENHGAISSFDYAYPDDIKQRVLMHWETDFSHD
B6: I283T-N285P-N287T-Q290E-S322T-N388M-K394R-K423G-C430A-L432F-L434W-S436N-dG462 (protein)
chain: MFLKSLREQINLLKRQGDLRIINRPVDSYLEAAAIIRRSTETKAPVPLMTNIKGYPGCSIVGGLAALSSNPEYPLSRVAMSLGLSTTASAQSIVQYLIDGLKKTPYLPVEIDSNSAPCKQNILRGEDASLAHFPIPQVHQHDGNRYVNTWGVFIVESPDGQWCNWSIQRVQYLNDRQMIALVFPSQHISDIWEEWVKIGKPMPYALVQGCEPIVPYIAGLPLLERNVNEAEYIGALYGKGIEVVKCETHDLRVPASSEVVIEGYFAITREGVEGPFGEFAGYTPPETSLEPILSITAISWQDDPIWPVVAEGKPVDEYHTCTGIGDAAAIQNVLLTANLPVSFVWVPLYSACHLMIVSINRHWRQTHPDLTSEQLTKKVGDVIHQTRMSIKLPRIVVLDDDVDPADTESLLWALATRIHPERGRYFYESAIFPWLNCYSEEERHNRKGKRVIIDALLPENHGAISSFDYAYPDDIKQRVLMHWETDFSHD
B7: I283T-N285P-N287T-Q290E-S322T-N388M-K394R-C430V-L432F-L434W-S436N-dG462 (protein)
chain: MFLKSLREQINLLKRQGDLRIINRPVDSYLEAAAIIRRSTETKAPVPLMTNIKGYPGCSIVGGLAALSSNPEYPLSRVAMSLGLSTTASAQSIVQYLIDGLKKTPYLPVEIDSNSAPCKQNILRGEDASLAHFPIPQVHQHDGNRYVNTWGVFIVESPDGQWCNWSIQRVQYLNDRQMIALVFPSQHISDIWEEWVKIGKPMPYALVQGCEPIVPYIAGLPLLERNVNEAEYIGALYGKGIEVVKCETHDLRVPASSEVVIEGYFAITREGVEGPFGEFAGYTPPETSLEPILSITAISWQDDPIWPVVAEGKPVDEYHTCTGIGDAAAIQNVLLTANLPVSFVWVPLYSACHLMIVSINRHWRQTHPDLTSEQLTKKVGDVIHQTRMSIKLPRIVVLDDDVDPADTESLLWALATRIHPERKRYFYESVIFPWLNCYSEEERHNRKGKRVIIDALLPENHGAISSFDYAYPDDIKQRVLMHWETDFSHD
B8: I283T-N285P-N287T-Q290E-S322T-N388M-K394R-C430A-L432F-L434W-S436N-H444T-dG462 (protein)
chain: MFLKSLREQINLLKRQGDLRIINRPVDSYLEAAAIIRRSTETKAPVPLMTNIKGYPGCSIVGGLAALSSNPEYPLSRVAMSLGLSTTASAQSIVQYLIDGLKKTPYLPVEIDSNSAPCKQNILRGEDASLAHFPIPQVHQHDGNRYVNTWGVFIVESPDGQWCNWSIQRVQYLNDRQMIALVFPSQHISDIWEEWVKIGKPMPYALVQGCEPIVPYIAGLPLLERNVNEAEYIGALYGKGIEVVKCETHDLRVPASSEVVIEGYFAITREGVEGPFGEFAGYTPPETSLEPILSITAISWQDDPIWPVVAEGKPVDEYHTCTGIGDAAAIQNVLLTANLPVSFVWVPLYSACHLMIVSINRHWRQTHPDLTSEQLTKKVGDVIHQTRMSIKLPRIVVLDDDVDPADTESLLWALATRIHPERKRYFYESAIFPWLNCYSEEERTNRKGKRVIIDALLPENHGAISSFDYAYPDDIKQRVLMHWETDFSHD
B9: I283T-N285P-N287T-Q290E-S322T-N388M-K394R-C430A-L432F-L434W-S436N-H444R-dG462 (protein)
chain: MFLKSLREQINLLKRQGDLRIINRPVDSYLEAAAIIRRSTETKAPVPLMTNIKGYPGCSIVGGLAALSSNPEYPLSRVAMSLGLSTTASAQSIVQYLIDGLKKTPYLPVEIDSNSAPCKQNILRGEDASLAHFPIPQVHQHDGNRYVNTWGVFIVESPDGQWCNWSIQRVQYLNDRQMIALVFPSQHISDIWEEWVKIGKPMPYALVQGCEPIVPYIAGLPLLERNVNEAEYIGALYGKGIEVVKCETHDLRVPASSEVVIEGYFAITREGVEGPFGEFAGYTPPETSLEPILSITAISWQDDPIWPVVAEGKPVDEYHTCTGIGDAAAIQNVLLTANLPVSFVWVPLYSACHLMIVSINRHWRQTHPDLTSEQLTKKVGDVIHQTRMSIKLPRIVVLDDDVDPADTESLLWALATRIHPERKRYFYESAIFPWLNCYSEEERRNRKGKRVIIDALLPENHGAISSFDYAYPDDIKQRVLMHWETDFSHD
B10: I283T-N285P-N287T-Q290E-S322T-N388M-K394R-C430A-L432F-L434W-S436N-H444F-dG462 (protein)
chain: MFLKSLREQINLLKRQGDLRIINRPVDSYLEAAAIIRRSTETKAPVPLMTNIKGYPGCSIVGGLAALSSNPEYPLSRVAMSLGLSTTASAQSIVQYLIDGLKKTPYLPVEIDSNSAPCKQNILRGEDASLAHFPIPQVHQHDGNRYVNTWGVFIVESPDGQWCNWSIQRVQYLNDRQMIALVFPSQHISDIWEEWVKIGKPMPYALVQGCEPIVPYIAGLPLLERNVNEAEYIGALYGKGIEVVKCETHDLRVPASSEVVIEGYFAITREGVEGPFGEFAGYTPPETSLEPILSITAISWQDDPIWPVVAEGKPVDEYHTCTGIGDAAAIQNVLLTANLPVSFVWVPLYSACHLMIVSINRHWRQTHPDLTSEQLTKKVGDVIHQTRMSIKLPRIVVLDDDVDPADTESLLWALATRIHPERKRYFYESAIFPWLNCYSEEERFNRKGKRVIIDALLPENHGAISSFDYAYPDDIKQRVLMHWETDFSHD

tested on: 3-methylcrotonic acid; format: biochemical, Yersinia frederiksenii; parameters: key: “+” representing a low increase in activity; “++++” representing a high increase in activity

| Molecule | Activity relative to WT |
| --- | --- |
| B1 | ++++ |
| B2 | ++++ |
| B3 | ++++ |
| B4 | ++++ |
| B5 | ++++ |
| B6 | ++++ |
| B7 | ++++ |
| B8 | ++++ |
| B9 | ++++ |
| B10 | ++++ |
